Results published in US20240360223A1 (DRAGONFLY THERAPEUTICS, published 2024).

Columns and labels:
cynomolgus FcRn = target: T1, cynomolgus FcRn (cynomolgus, UniProt Q8SPV9 24-297; Q8SPW0 21-119); test: SPR, pH 6.0, steady state; pH 6.0; third replicate
T1 construct: also called Cyno FcRn

human CD16a V158 = target: T2, human CD16a V158 (human, UniProt P08637 17-208); test: SPR, after 4 weeks at 40 °C
T2 construct: also called hCD16aV; hCD16a V158

[1] = target: T3, human NKG2D (recombinant mFc-tagged dimer) (human, UniProt P26718 78-216); test: SPR, after 4 weeks at 40 °C
T3 construct: also called hNKG2D
T3 sequence (looked up): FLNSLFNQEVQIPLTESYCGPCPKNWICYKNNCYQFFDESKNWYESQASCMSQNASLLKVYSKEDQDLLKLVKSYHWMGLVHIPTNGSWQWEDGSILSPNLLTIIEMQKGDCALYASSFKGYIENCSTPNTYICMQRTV

T2 sequence (P08637 17-208 F176V limits assumed): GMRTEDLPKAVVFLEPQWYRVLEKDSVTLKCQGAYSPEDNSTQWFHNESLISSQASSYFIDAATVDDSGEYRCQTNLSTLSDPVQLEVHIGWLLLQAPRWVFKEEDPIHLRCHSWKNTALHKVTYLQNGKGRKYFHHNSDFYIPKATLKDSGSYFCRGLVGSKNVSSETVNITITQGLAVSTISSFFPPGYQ
T1 sequence (Q8SPV9 24-297 limits assumed, chain 1 of 2): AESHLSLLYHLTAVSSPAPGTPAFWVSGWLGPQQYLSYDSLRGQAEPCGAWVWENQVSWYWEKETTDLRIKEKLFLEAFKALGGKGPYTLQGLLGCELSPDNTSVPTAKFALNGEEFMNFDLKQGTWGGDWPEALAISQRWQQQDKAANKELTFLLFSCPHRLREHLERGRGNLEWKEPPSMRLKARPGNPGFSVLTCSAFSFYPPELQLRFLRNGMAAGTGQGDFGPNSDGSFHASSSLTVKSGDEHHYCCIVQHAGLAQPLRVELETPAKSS
T1 sequence (Q8SPW0 21-119 limits assumed, chain 2 of 2): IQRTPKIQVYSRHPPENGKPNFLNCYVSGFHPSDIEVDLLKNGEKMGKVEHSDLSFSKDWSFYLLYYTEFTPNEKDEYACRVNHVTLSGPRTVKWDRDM

- Kd (cynomolgus FcRn): 1000 nM
- Kd (human CD16a V158): 145 nM
- koff (human CD16a V158): 0.016 s⁻¹
- kon (human CD16a V158): 120000 M⁻¹ s⁻¹
- koff [1]: 0.1 s⁻¹
- kon [1]: 210000 M⁻¹ s⁻¹
B1: AB1424/AB1612 F3′ TriNKET (bispecific antibody, human IgG1, kappa)
chain: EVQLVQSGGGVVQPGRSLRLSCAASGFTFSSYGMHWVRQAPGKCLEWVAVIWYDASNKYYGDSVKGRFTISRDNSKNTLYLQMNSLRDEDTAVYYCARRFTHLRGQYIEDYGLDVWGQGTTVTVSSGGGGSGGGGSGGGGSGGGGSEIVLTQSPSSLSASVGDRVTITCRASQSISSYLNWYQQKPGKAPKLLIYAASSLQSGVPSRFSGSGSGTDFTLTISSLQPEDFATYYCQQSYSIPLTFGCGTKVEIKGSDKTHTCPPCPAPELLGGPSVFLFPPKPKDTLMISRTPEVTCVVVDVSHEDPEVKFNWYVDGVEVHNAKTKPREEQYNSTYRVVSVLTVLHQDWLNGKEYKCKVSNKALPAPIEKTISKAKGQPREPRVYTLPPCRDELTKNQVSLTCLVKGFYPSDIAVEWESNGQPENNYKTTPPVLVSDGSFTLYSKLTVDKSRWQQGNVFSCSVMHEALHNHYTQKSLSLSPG
heavy: EVQLVESGGGLVKPGGSLRLSCAASGFTFSSYSMNWVRQAPGKGLEWVSSISSSSSYIYYADSVKGRFTISRDNAKNSLYLQMNSLRAEDTAVYYCARGAPIGAAAGWFDPWGQGTLVTVSSASTKGPSVFPLAPSSKSTSGGTAALGCLVKDYFPEPVTVSWNSGALTSGVHTFPAVLQSSGLYSLSSVVTVPSSSLGTQTYICNVNHKPSNTKVDKKVEPKSCDKTHTCPPCPAPELLGGPSVFLFPPKPKDTLMISRTPEVTCVVVDVSHEDPEVKFNWYVDGVEVHNAKTKPREEQYNSTYRVVSVLTVLHQDWLNGKEYKCKVSNKALPAPIEKTISKAKGQPREPQVCTLPPSRDELTENQVSLTCLVKGFYPSDIAVEWESNGQPENNYKTTPPVLDSDGSFFLYSWLTVDKSRWQQGNVFSCSVMHEALHNHYTQKSLSLSPG
light: DIQMTQSPSSVSASVGDRVTITCRASQGISSWLAWYQQKPGKAPKLLIYAASSLQSGVPSRFSGSGSGTDFTLTISSLQPEDFATYYCQQGVSFPRTFGGGTKVEIKRTVAAPSVFIFPPSDEQLKSGTASVVCLLNNFYPREAKVQWKVDNALQSGNSQESVTEQDSKDSTYSLSSTLTLSKADYEKHKVYACEVTHQGLSSPVTKSFNRGEC
notes: Chain S: anti-BAFF-R scFv-CH2-CH3; chain H: anti-NKG2D VH-CH1-CH2-CH3; chain L: anti-NKG2D VL-CL; also called AB1612-002
